This is an account of results in publication PMC9957003, “Functional Analyses of Rare Germline Missense BRCA1 Variants Located within and outside Protein Domains with Known Functions” (Genes, 2023).

First the molecules themselves.
B1: BRCA1 p.Thr1256Ile (full-length, mCherry-tagged) (natural protein, human, UniProt P38398 1-1863, looked up)
chain: MDLSALRVEEVQNVINAMQKILECPICLELIKEPVSTKCDHIFCKFCMLKLLNQKKGPSQCPLCKNDITKRSLQESTRFSQLVEELLKIICAFQLDTGLEYANSYNFAKKENNSPEHLKDEVSIIQSMGYRNRAKRLLQSEPENPSLQETSLSVQLSNLGTVRTLRTKQRIQPQKTSVYIELGSDSSEDTVNKATYCSVGDQELLQITPQGTRDEISLDSAKKAACEFSETDVTNTEHHQPSNNDLNTTEKRAAERHPEKYQGSSVSNLHVEPCGTNTHASSLQHENSSLLLTKDRMNVEKAEFCNKSKQPGLARSQHNRWAGSKETCNDRRTPSTEKKVDLNADPLCERKEWNKQKLPCSENPRDTEDVPWITLNSSIQKVNEWFSRSDELLGSDDSHDGESESNAKVADVLDVLNEVDEYSGSSEKIDLLASDPHEALICKSERVHSKSVESNIEDKIFGKTYRKKASLPNLSHVTENLIIGAFVTEPQIIQERPLTNKLKRKRRPTSGLHPEDFIKKADLAVQKTPEMINQGTNQTEQNGQVMNITNSGHENKTKGDSIQNEKNPNPIESLEKESAFKTKAEPISSSISNMELELNIHNSKAPKKNRLRRKSSTRHIHALELVVSRNLSPPNCTELQIDSCSSSEEIKKKKYNQMPVRHSRNLQLMEGKEPATGAKKSNKPNEQTSKRHDSDTFPELKLTNAPGSFTKCSNTSELKEFVNPSLPREEKEEKLETVKVSNNAEDPKDLMLSGERVLQTERSVESSSISLVPGTDYGTQESISLLEVSTLGKAKTEPNKCVSQCAAFENPKGLIHGCSKDNRNDTEGFKYPLGHEVNHSRETSIEMEESELDAQYLQNTFKVSKRQSFAPFSNPGNAEEECATFSAHSGSLKKQSPKVTFECEQKEENQGKNESNIKPVQTVNITAGFPVVGQKDKPVDNAKCSIKGGSRFCLSSQFRGNETGLITPNKHGLLQNPYRIPPLFPIKSFVKTKCKKNLLEENFEEHSMSPEREMGNENIPSTVSTISRNNIRENVFKEASSSNINEVGSSTNEVGSSINEIGSSDENIQAELGRNRGPKLNAMLRLGVLQPEVYKQSLPGSNCKHPEIKKQEYEEVVQTVNTDFSPYLISDNLEQPMGSSHASQVCSETPDDLLDDGEIKEDTSFAENDIKESSAVFSKSVQKGELSRSPSPFTHTHLAQGYRRGAKKLESSEENLSSEDEELPCFQHLLFGKVNNIPSQSTRHSTVATECLSKNIEENLLSLKNSLNDCSNQVILAKASQEHHLSEETKCSASLFSSQCSELEDLTANTNTQDPFLIGSSKQMRHQSESQGVGLSDKELVSDDEERGTGLEENNQEEQSMDSNLGEAASGCESETSVSEDCSGLSSQSDILTTQQRDTMQHNLIKLQQEMAELEAVLEQHGSQPSNSYPSIISDSSALEDLRNPEQSTSEKAVLTSQKSSEYPISQNPEGLSADKFEVSADSSTSKNKEPGVERSSPSKCPSLDDRWYMHSCSGSLQNRNYPSQEELIKVVDVEEQQLEESGPHDLTETSYLPRQDLEGTPYLESGISLFSDDPESDPSEDRAPESARVGNIPSSTSALKVPQLKVAESAQSPAAAHTTDTAGYNAMEESVSREKPELTASTERVNKRMSMVVSGLTPEEFMLVYKFARKHHITLTNLITEETTHVVMKTDAEFVCERTLKYFLGIAGGKWVVSYFWVTQSIKERKMLNEHDFEVRGDVVNGRNHQGPKRARESQDRKIFRGLEICCYGPFTNMPTDQLEWMVQLCGASVVKELSSFTLGTGVHPIVVVQPDAWTEDNGFHAIGQMCEAPVVTREWVLDSVALYQCQELDTYLIPQIPHSHY
notes: BRCA1, human, full-length, rare germline missense variant introduced in the WT plasmid; Made by site-directed mutagenesis of the plasmid of m1; also called c.3767C > T; source: HEK293FT, transiently co-transfected, in lysate
B2: BRCA1 p.Arg610Thr (full-length, mCherry-tagged) (natural protein, human, UniProt P38398 1-1863, looked up)
chain: B1 chain with R610T, I1256T
notes: BRCA1, human, full-length, rare germline missense variant introduced in the WT plasmid; Made by site-directed mutagenesis of the plasmid of m1; also called c.1829G > C; source: HEK293FT, transiently co-transfected, in lysate
B3: BRCA1 p.Val1378Ile (full-length, mCherry-tagged; benign control variant, coiled-coil domain) (natural protein, human, UniProt P38398 1-1863, looked up)
chain: B1 chain with I1256T, V1378I
notes: BRCA1, human, full-length, benign control missense variant in the coiled-coil domain, introduced in the WT plasmid; Made by site-directed mutagenesis of the plasmid of m1; also called c.4132G > A; source: HEK293FT, transiently co-transfected, in lysate
B4: BRCA1 p.Leu523Val (full-length, mCherry-tagged) (natural protein, human, UniProt P38398 1-1863, looked up)
chain: B1 chain with L523V, I1256T
notes: BRCA1, human, full-length, rare germline missense variant introduced in the WT plasmid; Made by site-directed mutagenesis of the plasmid of m1; also called c.1567T > G; source: HEK293FT, transiently co-transfected, in lysate
B5: BRCA1 p.Arg504Cys (full-length, mCherry-tagged) (natural protein, human, UniProt P38398 1-1863, looked up)
chain: B1 chain with R504C, I1256T
notes: BRCA1, human, full-length, rare germline missense variant introduced in the WT plasmid; Made by site-directed mutagenesis of the plasmid of m1; also called c.1510C > T; source: HEK293FT, transiently co-transfected, in lysate
B6: mCherry-tagged wild type (WT) full-length human BRCA1 protein (natural protein, UniProt P38398 1-1863, looked up)
chain: B1 chain with I1256T
notes: BRCA1, human, full-length, wild type; also called BRCA1 WT; mCherry-BRCA1; source: HEK293FT, transiently co-transfected, in lysate
B7: BRCA1 p.Lys45Gln (full-length, mCherry-tagged; benign control variant, RING domain) (natural protein, human, UniProt P38398 1-1863, looked up)
chain: B1 chain with K45Q, I1256T
notes: BRCA1, human, full-length, benign control missense variant in the RING domain, introduced in the WT plasmid; Made by site-directed mutagenesis of the plasmid of m1; also called c.133A > C; source: HEK293FT, transiently co-transfected, in lysate
B8: BRCA1 p.Cys39Tyr (full-length, mCherry-tagged; pathogenic control variant, RING domain) (natural protein, human, UniProt P38398 1-1863, looked up)
chain: B1 chain with C39Y, I1256T
notes: BRCA1, human, full-length, pathogenic control missense variant in the RING domain, introduced in the WT plasmid; Made by site-directed mutagenesis of the plasmid of m1; all other places and c.116G > A say p.Cys39Tyr; also called c.116G > A; source: HEK293FT, transiently co-transfected, in lysate

Substitutions are numbered along the chain they refer to.

The target of the first experiment is T1, Flag-PALB2 WT (Partner and Localiser of BRCA2) (UniProt Q86YC2 1-1186).
T1 construct: PALB2 (Partner and Localiser of BRCA2), wild type; printed both as Flag-PALB2 and as PALB2-Flag; also called PALB2-Flag; pDEST-FRT/T0-Flag-PALB2; source: HEK293FT, transiently co-transfected, in lysate
T1 sequence (looked up): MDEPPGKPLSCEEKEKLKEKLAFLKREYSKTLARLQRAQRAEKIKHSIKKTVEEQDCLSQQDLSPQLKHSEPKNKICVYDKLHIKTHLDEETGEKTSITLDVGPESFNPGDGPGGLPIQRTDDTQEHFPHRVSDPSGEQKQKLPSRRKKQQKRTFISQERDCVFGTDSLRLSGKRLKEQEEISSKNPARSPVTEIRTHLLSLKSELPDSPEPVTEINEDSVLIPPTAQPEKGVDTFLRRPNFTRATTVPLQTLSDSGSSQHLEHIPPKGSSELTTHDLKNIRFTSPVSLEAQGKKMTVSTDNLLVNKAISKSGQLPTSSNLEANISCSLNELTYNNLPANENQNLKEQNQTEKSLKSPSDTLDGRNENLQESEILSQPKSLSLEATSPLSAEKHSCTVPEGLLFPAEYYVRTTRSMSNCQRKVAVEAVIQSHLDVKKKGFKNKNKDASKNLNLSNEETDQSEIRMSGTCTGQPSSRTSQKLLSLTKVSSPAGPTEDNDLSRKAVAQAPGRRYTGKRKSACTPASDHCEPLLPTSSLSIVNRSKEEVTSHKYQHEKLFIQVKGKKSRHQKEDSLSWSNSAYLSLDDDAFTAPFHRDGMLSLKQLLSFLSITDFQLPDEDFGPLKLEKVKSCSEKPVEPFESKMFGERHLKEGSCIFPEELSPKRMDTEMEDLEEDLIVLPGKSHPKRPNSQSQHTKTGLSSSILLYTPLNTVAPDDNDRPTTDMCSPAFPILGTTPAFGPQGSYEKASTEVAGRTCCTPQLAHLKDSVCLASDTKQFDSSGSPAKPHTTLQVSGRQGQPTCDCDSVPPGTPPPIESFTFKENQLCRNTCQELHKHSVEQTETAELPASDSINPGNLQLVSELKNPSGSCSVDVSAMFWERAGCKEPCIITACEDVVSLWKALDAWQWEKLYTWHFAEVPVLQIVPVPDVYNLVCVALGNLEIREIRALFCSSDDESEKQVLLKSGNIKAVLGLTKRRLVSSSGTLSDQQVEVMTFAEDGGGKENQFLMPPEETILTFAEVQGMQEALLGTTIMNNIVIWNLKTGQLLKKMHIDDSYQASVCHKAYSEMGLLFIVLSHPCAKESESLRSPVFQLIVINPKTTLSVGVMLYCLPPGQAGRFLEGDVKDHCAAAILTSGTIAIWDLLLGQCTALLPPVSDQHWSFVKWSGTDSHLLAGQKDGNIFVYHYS
Kind of experiment: co-IP; HEK293FT co-transfected with BRCA1 WT or variant and Flag-PALB2; 2 mg lysate protein incubated 90 min at 4 °C with Flag antibody coupled to Dynabeads Protein G; non-denaturing elution; BRCA1 in the IP detected by anti-BRCA1 blot, normalised to the anti-Flag signal, % of WT. The conditions noted are these: partners not purified.
As to B1, the “Co-IP PALB2 (% of WT)” value is 79 % of WT.
For B2, the “Co-IP PALB2 (% of WT)” value was 56 % of WT.
On the same count and under the same terms, for B3 the value was 72 % of WT; for B4, 73 % of WT; for B5, 65 % of WT.

A further experiment concerns the target T2, BARD1-V5 WT (BRCA1-Associated RING Domain protein 1) (UniProt Q99728 1-777).
T2 construct: BARD1 (BRCA1-Associated RING Domain protein 1), wild type; also called pcDNA6.2-BARD1-V5; source: HEK293FT, transiently co-transfected, in lysate
T2 sequence (looked up): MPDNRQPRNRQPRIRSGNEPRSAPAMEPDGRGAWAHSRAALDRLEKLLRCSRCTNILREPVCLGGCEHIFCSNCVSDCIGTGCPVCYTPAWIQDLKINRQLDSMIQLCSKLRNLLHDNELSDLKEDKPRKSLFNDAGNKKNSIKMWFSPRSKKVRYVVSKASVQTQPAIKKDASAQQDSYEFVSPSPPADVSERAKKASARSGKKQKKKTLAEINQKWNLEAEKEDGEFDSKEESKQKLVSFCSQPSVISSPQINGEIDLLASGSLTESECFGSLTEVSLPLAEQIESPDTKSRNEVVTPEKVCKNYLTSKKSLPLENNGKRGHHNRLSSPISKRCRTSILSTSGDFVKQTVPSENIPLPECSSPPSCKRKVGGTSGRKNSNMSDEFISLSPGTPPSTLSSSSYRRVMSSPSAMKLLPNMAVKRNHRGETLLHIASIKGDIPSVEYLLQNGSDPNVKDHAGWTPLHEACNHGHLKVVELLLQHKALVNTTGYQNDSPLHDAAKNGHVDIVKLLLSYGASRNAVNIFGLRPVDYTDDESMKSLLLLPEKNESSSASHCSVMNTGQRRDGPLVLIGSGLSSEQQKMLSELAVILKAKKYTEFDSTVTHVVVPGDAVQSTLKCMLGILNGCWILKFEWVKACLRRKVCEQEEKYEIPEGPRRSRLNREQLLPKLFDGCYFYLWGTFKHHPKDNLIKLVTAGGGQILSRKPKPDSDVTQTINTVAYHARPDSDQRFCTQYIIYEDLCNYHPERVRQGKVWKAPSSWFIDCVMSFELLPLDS
Kind of experiment: co-IP; HEK293FT co-transfected with BRCA1 WT or variant and BARD1-V5; 2 mg lysate protein incubated 90 min at 4 °C with V5 antibody coupled to Dynabeads Protein G; non-denaturing elution; BRCA1 in the IP detected by anti-BRCA1 blot, normalised to the anti-V5 signal, % of WT. The note with it: partners not purified.
As to B6, the “Co-IP BARD1 (% of WT)” value is 100 % of WT.
On the same count and under the same terms, the result for B7 reads 76 % of WT; that for B1, 55 % of WT.
Still for that read-out and setting: for B8 the value was 8 % of WT; for B2, 81 % of WT.
Still for that read-out and setting: for B4 the value was 71 % of WT; for B5, 63 % of WT.
